Patent US20160159906A1 (Genentech, published 2016)

T1: human CD79b (human, UniProt P40259 29-229)
T1 construct: Endogenous CD79b on BJAB / BJAB-luciferase cells (FACS) and on human B cells (killing assays); also called huCD79b; Igβ
T1 sequence: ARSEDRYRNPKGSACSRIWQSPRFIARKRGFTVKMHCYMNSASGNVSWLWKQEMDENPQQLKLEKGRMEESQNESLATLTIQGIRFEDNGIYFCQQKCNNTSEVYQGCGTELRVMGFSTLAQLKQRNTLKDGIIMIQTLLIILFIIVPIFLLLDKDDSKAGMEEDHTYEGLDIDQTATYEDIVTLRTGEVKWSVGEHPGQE

B1: CD79b.A7, dual arm, bivalent anti-CD79b antibody (antibody, V domains shown)
VH: QVQLQQPGVELVRPGASVKLSCKASGYTFTTYWMNWVRQRPGQGLDWIGMIDPSDSETHYNQMFKDKATLTVDKSSSTAYIQLNSLTSEDSAVYYCSRSLAFWGQGTLVTVSA
VL: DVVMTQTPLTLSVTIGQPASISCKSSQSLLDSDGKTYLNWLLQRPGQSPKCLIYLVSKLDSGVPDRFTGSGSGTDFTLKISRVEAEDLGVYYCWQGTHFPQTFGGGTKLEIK
notes: Mouse hybridoma clone; also called CD79.A7; muCD79b.A7

Columns and labels:
human CD79b = target: T1, human CD79b; assay: FACS on BJAB cells (FIG. 3B); dual arm, bivalent antibody
Experimental: BJAB cells were incubated with anti-CD79b antibody (bivalent, dual arm antibody) or anti-CD79b/CD3 TDB antibody as indicated for 30 minutes on ice. At the end of the incubation, cells were washed with ice cold FACS buffer (lx PBS, 2% BSA, 2mM EDTA), followed by incubation with PE-labeled mouse anti-human IgG antibody (BD bioscience #555787). Flow cytometry analysis was done on a BD LSR analyzer. Antibody binding was expressed as Mean Fluorescence Intensity (MFI) of PE fluorophore. A: The bivalent binding affinity of anti-CD79b clone 2F2 comparing to monovalent binding affinity of anti-CD79b clones 2F2, SN8v28, and SN8new (as K&H TDBs); B: bivalent binding affinity of anti-CD79b clones CD79b.F6 and CD79b.A7 comparing to monovalent binding of anti-CD79b clones CD79b.F6, CD79b.A7, and SN8v28 (as bisfab or K&H TDBs); C: bivalent binding affinity of anti-CD79b clone CD79b.A7.v14 comparing to monovalent binding of anti-CD79b clone CD79b.A7.v14 (as K&H TDBs).
The monovalent and bivalent anti-CD79b antibody binding affinity was also evaluated in order to better understand the contribution, if any, to B cell killing activity. Binding affinity of dual arm, bivalent anti-CD79b antibodies and bispecific anti-CD79b/ CD3 antibodies using BJAB cells were also analyzed. […]

[1] = target: B1; assay: FACS on BJAB cells, peptide competition of CD79b.A7 binding (data not shown)

Row | EC50 (human CD79b) [µg/mL] | binding result [1] | Binder
1 | 0.31 |  | B1
2 |  | no binding | AKSEDLYPNPKGSACSRIWQS
